Experiment [1] concerns the target recombinant Mouse VEGF164 (mouse) (UniProt Q00731). Kind of experiment: SPR (Biacore T100); monomeric scFv over 1000 RU mouse VEGF164 on a CM5 chip; 1:1 fit. (In SPR one partner is held on a chip, and binding of the other changes the refractive index at the surface.)
Experiment [2] concerns the target human VEGF-A (human) (UniProt P15692). Kind of experiment: SPR (Biacore T100); IgG over 100 RU human VEGF-A on a CM5 chip; 1:1 fit; 37°C.
Experiment [3] has the same target. Put plainly: SPR (Biacore T100); IgG over 100 RU human VEGF-A on a CM5 chip; 1:1 fit; 25°C.
A further experiment has as its target PlGF. Put plainly: indirect ELISA on coated growth factor; 2C3 at 1.0 ug/ml. In general terms: In an ELISA, binding on a coated surface is turned into a signal by an enzyme label.
The target of the next experiment is VEGF-B. The experiment is described as above.
Experiment [4] concerns the target human VEGF-A (human) (UniProt P15692). The description is as above.
The target in a further experiment is VEGF-C. Described as above.
For experiment [5], the target named is mouse VEGF (isoform not given) (mouse) (UniProt Q00731). The experiment is described as above.
For another experiment, the target named is VEGF-D. The experiment is described as above.

Sequence of human VEGF-A (human) (P15692 other isoform, or with tags, fused parts or gaps limits assumed): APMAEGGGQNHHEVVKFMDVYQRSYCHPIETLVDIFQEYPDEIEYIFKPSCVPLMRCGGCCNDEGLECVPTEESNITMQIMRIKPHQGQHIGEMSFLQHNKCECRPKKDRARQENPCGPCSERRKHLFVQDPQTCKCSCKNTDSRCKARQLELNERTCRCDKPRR
Sequence of mouse VEGF (isoform not given) (mouse) (Q00731 other isoform, or with tags, fused parts or gaps limits assumed): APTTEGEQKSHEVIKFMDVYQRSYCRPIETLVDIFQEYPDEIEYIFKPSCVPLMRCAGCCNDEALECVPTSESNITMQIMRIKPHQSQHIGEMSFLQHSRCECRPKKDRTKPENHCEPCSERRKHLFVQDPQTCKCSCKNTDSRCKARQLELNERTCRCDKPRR

By Kd is commonly meant the equilibrium constant for the complex coming apart. Turning to EJ173/112-C11 (r84/PGN311) scFv, the Kd in experiment [1] turned out to be 10 nM.

As to murine 2C3 anti-VEGF antibody (IgG), the results for the equilibrium dissociation constant (Kd) in the experiment with human VEGF-A (human) [2] and with human VEGF-A (human) [3] were 313 nM and 12.4 nM, respectively. Also, the mean absorbance (absorbance at 450 nM) with PlGF is 0.1; with VEGF-B it was 0.09; in the experiment with human VEGF-A (human) [4], 3.07; in the experiment with VEGF-C it was 0.09; in [5], 0.09; with VEGF-D, 0.12.

These data come from US20120064001A1.
